According to patent publication US20210380703A1:

Target: Human Fc (human)
Test: ELISA; negative control

Binder	optical density
365_D09 (antibody, V domains shown) VH: EVQLLESGGGLVQPGGSLRLSCAASGFTFSSYGMHWVRQAPGKGLEWVSGINYNSGYTSYADSVKGRFTISRDNSKNTLYLQMNSLRAEDTAVYYCARSANWHDTALDYWGQGTLVTVSS VL: DIQMTQSPSSLSASVGDRVTITCRASQSILSYLNWYQQKPGKAPKLLIYAATSRASGVPSRFSGSGSGTDFTLTISSLQPEDFATYYCQQSDESPLTFGGGTKVEIK	0.302 OD
365_F01 (antibody, V domains shown) VH: EVQLLESGGGLVQPGGSLRLSCAASGFTFDSYSMNWVRQAPGKGLEWVSGINYNSGYKGYADSVKGRFTISRDNSKNTLYLQMNSLRAEDTAVYYCARSANWHDTHLDYWGQGTLVTVSS VL: DIQMTQSPSSLSASVGDRVTITCRASQSIVSYLNWYQQKPGKAPKLVIYAATSLASGVPSRFSGSGSGTDFTLTISSLQPEDFATYYCQQSYELPLTFGGGTKVEIK	0.341 OD
365_F06 (antibody, V domains shown) VH: EVQLLESGGGLVQPGGSLRLSCAASGFTFSSYGMNWVRQAPGKGLEWVAGINYNSGYKSYADSVKGRFTISRDNSKNTLYLQMNSLRAEDTAVYYCARSANWHDTALDYWGQGTLVTVSS VL: DIQMTQSPSSLSASVGDRVTITCRASQSILSYVNWYQQKPGKAPKLLIYAATSRASGVPSRFSGSGSGTDFTLTISSLQPEDFATYYCQQSDNLPLTFGGGTKVEIK	0.329 OD
365_G11 (antibody, V domains shown) VH: EVQLLESGGGLVQPGGSLRLSCAASGFTFSSYGMNWVRQAPGKGLEWVANINYNGGYTGYADSVKGRFTISRDNSKNTLYLQMNSLRAEDTAVYYCARSANWHDTALDYWGQGTLVTVSS VL: DIQMTQSPSSLSASVGDRVTITCRASQSIITYVNWYQQKPGKAPKLLIYAVTSRHSGVPSRFSGSGSGTDFTLTISSLQPEDFATYYCQQSYNSPLTFGGGTKVEIK	0.278 OD
365_G01 (antibody, V domains shown) VH: EVQLLESGGGLVQPGGSLRLSCAASGFTFDSYGMNWVRQAPGKGLEWVAGINYNSGYKSYADSVKGRFTISRDNSKNTLYLQMNSLRAEDTAVYYCARSANWHDTALDYWGQGTLVTVSS VL: DIQMTQSPSSLSASVGDRVTITCRASQSILTYVNWYQQKPGKAPKLLIYATTSRASGVPSRFSGSGSGTDFTLTISSLQPEDFATYYCQQSYDSPLTFGGGTKVEIK	0.39 OD
365_E09 (antibody, V domains shown) VH: EVQLLESGGGLVQPGGSLRLSCAASGFTFSSYGMHWVRQAPGKGLEWVASINYNSGYKSYADSVKGRFTISRDNSKNTLYLQMNSLRAEDTAVYYCARSANWHDTALDYWGQGTLVTVSS VL: DIQMTQSPSSLSASVGDRVTITCRASQSILTYVNWYQQKPGKAPKLVIYAATSRASGVPSRFSGSGSGTDFTLTISSLQPEDFATYYCQQSDDSPLTFGGGTKVEIK	0.322 OD
365_H03 (antibody, V domains shown) VH: EVQLLESGGGLVQPGGSLRLSCAASGFTFDDYGMNWVRQAPGKGLEWVAGINYNGGYKSYADSVKGRFTISRDNSKNTLYLQMNSLRAEDTAVYYCARSANWHDTALDYWGQGTLVTVSS VL: DIQMTQSPSSLSASVGDRVTITCRASQSILSYVNWYQQKPGKAPKLVIYAATSLHSGVPSRFSGSGSGTDFTLTISSLQPEDFATYYCQQSYNNPLTFGGGTKVEIK	0.366 OD
365_E05 (antibody, V domains shown) VH: EVQLLESGGGLVQPGGSLRLSCAASGFTFSSYGMHWVRQAPGKGLEWVAGINYNGGYTSYADSVKGRFTISRDNSKNTLYLQMNSLRAEDTAVYYCARSANWHDTALDYWGQGTLVTVSS VL: DIQMTQSPSSLSASVGDRVTITCRASQSIVSYVNWYQQKPGKAPKLLIYAATSLASGVPSRFSGSGSGTDFTLTISSLQPEDFATYYCQQSYDNPLTFGGGTKVEIK	0.379 OD
365_E07 (antibody, V domains shown) VH: EVQLLESGGGLVQPGGSLRLSCAASGFTFDSYGMHWVRQAPGKGLEWVSGINYNSGYTSYADSVKGRFTISRDNSKNTLYLQMNSLRAEDTAVYYCAKSANWHDTHLDYWGQGTLVTVSS VL: DIQMTQSPSSLSASVGDRVTITCRASQSILSYLNWYQQKPGKAPKLLIYAATSRASGVPSRFSGSGSGTDFTLTISSLQPEDFATYYCQQSYDNPLTFGGGTKVEIK	0.302 OD
365_E01 (antibody, V domains shown) VH: EVQLLESGGGLVQPGGSLRLSCAASGFTFSDYSMNWVRQAPGKGLEWVSGINYNSGYKGYADSVKGRFTISRDNSKNTLYLQMNSLRAEDTAVYYCARSANWHDTALDYWGQGTLVTVSS VL: DIQMTQSPSSLSASVGDRVTITCRASQSIISYLNWYQQKPGKAPKLLIYAATSRASGVPSRFSGSGSGTDFTLTISSLQPEDFATYYCQQSYDSPLTFGGGTKVEIK	0.363 OD
365_D12 (antibody, V domains shown) VH: EVQLLESGGGLVQPGGSLRLSCAASGFTFDSYGMNWVRQAPGKGLEWVSNINYNGGYTGYADSVKGRFTISRDNSKNTLYLQMNSLRAEDTAVYYCARSANWHDTALDYWGQGTLVTVSS VL: DIQMTQSPSSLSASVGDRVTITCRASQSIVTYLNWYQQKPGKAPKLVIYAATSRASGVPSRFSGSGSGTDFTLTISSLQPEDFATYYCQQSYDTPLTFGGGTKVEIK	0.34 OD
365_F12 (antibody, V domains shown) VH: EVQLLESGGGLVQPGGSLRLSCAASGFTFSDYSMNWVRQAPGKGLEWVSGINYNGGYTSYADSVKGRFTISRDNSKNTLYLQMNSLRAEDTAVYYCARSANWHDTHLDYWGQGTLVTVSS VL: DIQMTQSPSSLSASVGDRVTITCRASQSILTYVNWYQQKPGKAPKLVIYAATSRHSGVPSRFSGSGSGTDFTLTISSLQPEDFATYYCQQSYETPLTFGGGTKVEIK	0.411 OD

More lines, now with the values ahead:

optical density	Binder
0.281 OD	366_F04 (antibody, V domains shown) VH: EVQLLESGGGLVQPGGSLRLSCAASGFTFSDYGMNWVRQAPGKGLEWVSGINYNGGYTSYADSVKGRFTISRDNSKNTLYLQMNSLRAEDTAVYYCARSANWHDTALDYWGQGTLVTVSS VL: DIQMTQSPSSLSASVGDRVTITCRASQSILSYVNWYQQKPGKAPKLVIYATTSRHSGVPSRFSGSGSGTDFTLTISSLQPEDFATYYCQQSYESPLTFGGGTKVEIK
0.353 OD	366_F07 (antibody, V domains shown) VH: EVQLLESGGGLVQPGGSLRLSCAASGFTFSDYSMNWVRQAPGKGLEWVAGINYNSGYTSYADSVKGRFTISRDNSKNTLYLQMNSLRAEDTAVYYCARSANWHDTHLDYWGQGTLVTVSS VL: DIQMTQSPSSLSASVGDRVTITCRASQSIITYLNWYQQKPGKAPKLLIYAATSRASGVPSRFSGSGSGTDFTLTISSLQPEDFATYYCQQSYETPLTFGGGTKVEIK
0.311 OD	366_B12 (antibody, V domains shown) VH: EVQLLESGGGLVQPGGSLRLSCAASGFTFSSYSMNWVRQAPGKGLEWVAGINYNSGYKGYADSVKGRFTISRDNSKNTLYLQMNSLRAEDTAVYYCARSANWHDTALDYWGQGTLVTVSS VL: DIQMTQSPSSLSASVGDRVTITCRASQSILTYVNWYQQKPGKAPKLLIYAATSRASGVPSRFSGSGSGTDFTLTISSLQPEDFATYYCQQSYDNPLTFGGGTKVEIK
0.403 OD	366_B08 (antibody, V domains shown) VH: EVQLLESGGGLVQPGGSLRLSCAASGFTFDSYGMNWVRQAPGKGLEWVSNINYNGGYKGYADSVKGRFTISRDNSKNTLYLQMNSLRAEDTAVYYCARSANWHDTHLDYWGQGTLVTVSS VL: DIQMTQSPSSLSASVGDRVTITCRASQSIVSYLNWYQQKPGKAPKLLIYAATSRHSGVPSRFSGSGSGTDFTLTISSLQPEDFATYYCQQSYDNPLTFGGGTKVEIK
0.309 OD	366_A07 (antibody, V domains shown) VH: EVQLLESGGGLVQPGGSLRLSCAASGFTFSSYGMHWVRQAPGKGLEWVASINYNGGYTGYADSVKGRFTISRDNSKNTLYLQMNSLRAEDTAVYYCARSANWHDTALDYWGQGTLVTVSS VL: DIQMTQSPSSLSASVGDRVTITCRASQSIVSYVNWYQQKPGKAPKLVIYAATSRHSGVPSRFSGSGSGTDFTLTISSLQPEDFATYYCQQSYESPLTFGGGTKVEIK
0.279 OD	366_F05 (antibody, V domains shown) VH: EVQLLESGGGLVQPGGSLRLSCAASGFTFSSYSMNWVRQAPGKGLEWVANINYNSGYKSYADSVKGRFTISRDNSKNTLYLQMNSLRAEDTAVYYCARSANWHDTHLDYWGQGTLVTVSS VL: DIQMTQSPSSLSASVGDRVTITCRASQSILTYLNWYQQKPGKAPKLLIYAATSRASGVPSRFSGSGSGTDFTLTISSLQPEDFATYYCQQSDNTPLTFGGGTKVEIK
0.424 OD	366_B10 (antibody, V domains shown) VH: EVQLLESGGGLVQPGGSLRLSCAASGFTFSSYGMNWVRQAPGKGLEWVSGINYNSGYTSYADSVKGRFTISRDNSKNTLYLQMNSLRAEDTAVYYCARSANWHDTALDYWGQGTLVTVSS VL: DIQMTQSPSSLSASVGDRVTITCRASQSIISYLNWYQQKPGKAPKLLIYAATSRASGVPSRFSGSGSGTDFTLTISSLQPEDFATYYCQQSYDNPLTFGGGTKVEIK
0.271 OD	366_E10 (antibody, V domains shown) VH: EVQLLESGGGLVQPGGSLRLSCAASGFTFDSYGMNWVRQAPGKGLEWVSGINYNGGYKGYADSVKGRFTISRDNSKNTLYLQMNSLRAEDTAVYYCARSANWHDTHLDYWGQGTLVTVSS VL: DIQMTQSPSSLSASVGDRVTITCRASQSILSYVNWYQQKPGKAPKLVIYAATSRHSGVPSRFSGSGSGTDFTLTISSLQPEDFATYYCQQSYSLPLTFGGGTKVEIK
0.338 OD	366_D04 (antibody, V domains shown) VH: EVQLLESGGGLVQPGGSLRLSCAASGFTFSSYSMNWVRQAPGKGLEWVSGINYNGGYTSYADSVKGRFTISRDNSKNTLYLQMNSLRAEDTAVYYCARSANWHDTALDYWGQGTLVTVSS VL: DIQMTQSPSSLSASVGDRVTITCRASQSISSYVNWYQQKPGKAPKLLIYATTSRASGVPSRFSGSGSGTDFTLTISSLQPEDFATYYCQQSYETPLTFGGGTKVEIK
0.375 OD	365_H11 (antibody, V domains shown) VH: EVQLLESGGGLVQPGGSLRLSCAASGFTFSSYSMNWVRQAPGKGLEWVSGINYNSGYTGYADSVKGRFTISRDNSKNTLYLQMNSLRAEDTAVYYCARSANWHDTALDYWGQGTLVTVSS VL: DIQMTQSPSSLSASVGDRVTITCRASQSILTYLNWYQQKPGKAPKLLIYAATSRASGVPSRFSGSGSGTDFTLTISSLQPEDFATYYCQQSYDSPLTFGGGTKVEIK
